Results taken from article PMC6312923 (Life Science Alliance, 2018).

Columns and labels:
Assay type in all cases: cell-based, human
[1] = system: Cdt1 and p21 poly-ubiquitination; assay: Poly-ubiquitination of Cdt1 and p21 in U2OS cells; conditions: U2OS stable cells, MG132 3 h
Experimental: (§1) To consider this possibility, asynchronously growing control HEK293 cells and cells expressing Cdt2^WT or Cdt2^PIP-3A were treated with proteasome inhibitor MG132 and the levels of poly-ubiquitinated Cdt1 were examined. […] Cdt2^PIP-3A-expressing cells however had reduced level of both poly-ubiquitinated Cdt1 and p21 on chromatin.
Figure S7. Cdt2 PIP box is important for CRL4^Cdt2 activity in U2OS cells. (A) U2OS stable cells expressing Cdt2^WT or Cdt2^PIP-3A. U2OS cells were transfected with expression vectors for Cdt2^WT-FLAG or Cdt2^PIP-3A-FLAG, and isolated stable clones were verified by immunofluorescent analysis and Western blot analysis. Frequency of expressing cells for each construct was shown (%). (B) Poly-ubiquitination assay with U2OS stable cells. U2OS cells and Cdt2^WT-3FLAG or Cdt2^PIP-3A-3FLAG expressing stable U2OS cells were treated with MG132 for 3 h or not (−), and whole-cell extracts were prepared for Western blotting. (C) Cells were transfected with siCdt2 or control siLuc for 72 h, irradiated with UV (+, 5 J/m^2) or not (−), and collected 1h later for Western blotting. Relative levels of Cdt1 were shown, UV (−) level set as 1.0 (average of two independent experiments).

[2] = system: HEK293 cells, PCNA foci; assay: Co-localization of Cdt2 with PCNA foci (S phase) in HEK293 cells; conditions: stable HEK293, asynchronous, pre-extracted
Excerpt: XPA, a component of nucleotide excision repair, staining was used to confirm that similar extents of DNA damage were induced both in Cdt2^WT- and Cdt2^PIP-3A-expressing cells. […] A similar percentage of PCNA-positive S-phase cells was detected both in Cdt2^1–730/WT-expressing cells and Cdt2^PIP-3A-expressing cells (Fig S6). […] More than 80% of PCNA-positive cells were co-stained with Cdt2^WT, with the early S-phase cells displaying stronger Cdt2^WT staining than the late S-phase cells as reported ([Nukina et al, 2018]) (Figs 6B and C, and S6A).
(§2) Figure 6. The Cdt2 PIP box is important for its recruitment to DNA damage sites and replication foci and for poly-ubiquitination activity. (A) HEK293 and stable Cdt2^WT or Cdt2^PIP-3A cells were locally UV irradiated, and stained for XPA and FLAG (Cdt2). XPA-positive spots were examined for FLAG signal, and its frequency was counted (%). More than 50 spots were examined. bar:10 μm. […] Bar: 10 μm. […] (D) Whole-cell extracts were prepared from HEK293 and stably transfected cells of Cdt2^WT or Cdt2^PIP-3A cells, separated into soluble (Sup) and chromatin-containing insoluble (Ppt) fractions, and were examined for indicated proteins. The asterisk indicates nonspecific bands. […]
(§3) For Western blotting, whole-cell lysates were prepared by lysing cell pellets directly in SDS–PAGE buffer. […] Protein levels were analysed by ImageJ software.

[3] = system: HEK293 cells, UV-irradiated sites; assay: Recruitment of FLAG-Cdt2 to UV-irradiated (XPA) sites in HEK293 cells; conditions: stable HEK293 cells, XPA-positive spots
Experimental: as §2, with “bands. (E) HEK293 and stably transfected cells of Cdt2^WT or Cdt2^PIP-3A were treated with MG132 for 3 h.” for “bands.”
as §3
We used a method to induce DNA photoproducts within localized areas of the cell nucleus as described in Ishii et al (2010). […] UV irradiation was achieved using a UV lamp (SUV-16, As One, Japan) with a dose rate of 0.4 J/m^2·s, which was monitored with a UV radiometer (UVX Radiometer, UVP) at 254 nm, or with a UV box equipped with a UV-C lamp monitored with a VLX-3W radiometer (Vilber Lourmat) at 254 nm (CX-254 sensor). […]

[4] = system: Cdt2 poly-ubiquitination; assay: Poly-ubiquitination of Cdt2 itself on chromatin in HEK293 cells; conditions: HEK293, MG132 3 h
Experimental: Figure 6. The Cdt2 PIP box is important for its recruitment to DNA damage sites and replication foci and for poly-ubiquitination activity. (A) HEK293 and stable Cdt2^WT or Cdt2^PIP-3A cells were locally UV irradiated, and stained for XPA and FLAG (Cdt2). XPA-positive spots were examined for FLAG signal, and its frequency was counted (%). More than 50 spots were examined. bar:10 μm. […] Bar: 10 μm. […] (D) Whole-cell extracts were prepared from HEK293 and stably transfected cells of Cdt2^WT or Cdt2^PIP-3A cells, separated into soluble (Sup) and chromatin-containing insoluble (Ppt) fractions, and were examined for indicated proteins. The asterisk indicates nonspecific bands. (E) HEK293 and stably transfected cells of Cdt2^WT or Cdt2^PIP-3A were treated with MG132 for 3 h. Whole-cell extracts (WCE) were prepared, separated into soluble (Sup) and insoluble (Ppt) fractions, and blotted with the indicated antibodies.
as §1

Molecule | poly-ubiquitination of Cdt1 and p21 [1] | PCNA-positive cells co-stained with Cdt2 [2] | recruitment to UV-irradiated sites [3] | poly-ubiquitination of Cdt2 on chromatin [4] | Cdt2 signal in PCNA foci [2]
Cdt2: Cdt2 tagged with GFP, transiently expressed in MCF7 cells | Increased levels | More than 80% |  |  | 
Cdt2^PIP-3A: Cdt2 with I709, Y712, and F713 all mutated to alanine (protein, UniProt Q9NZJ0 1-730, looked up, variant I709A Y712A F713A, FLAG tag, Cdt2 with I709, Y712, and F713 all mutated to alanine) Denticleless protein homolog: MLFNSVLRQPQLGVLRNGWSSQYPLQSLLTGYQCSGNDEHTSYGETGVPVPPFGCTFSSAPNMEHVLAVANEEGFVRLYNTESQSFRKKCFKEWMAHWNAVFDLAWVPGELKLVTAAGDQTAKFWDVKAGELIGTCKGHQCSLKSVAFSKFEKAVFCTGGRDGNIMVWDTRCNKKDGFYRQVNQISGAHNTSDKQTPSKPKKKQNSKGLAPSVDFQQSVTVVLFQDENTLVSAGAVDGIIKVWDLRKNYTAYRQEPIASKSFLYPGSSTRKLGYSSLILDSTGSTLFANCTDDNIYMFNMTGLKTSPVAIFNGHQNSTFYVKSSLSPDDQFLVSGSSDEAAYIWKVSTPWQPPTVLLGHSQEVTSVCWCPSDFTKIATCSDDNTLKIWRLNRGLEEKPGGDKLSTVGWASQKKKESRPGLVTVTSSQSTPAKAPRAKCNPSNSSPSSAACAPSCAGDLPLPSNTPTFSIKTSPAKARSPINRRGSVSSVSPKPPSSFKMSIRNWVTRTPSSSPPITPPASETKIMSPRKALIPVSQKSSQAEACSESRNRVKRRLDSSCLESVKQKCVKSCNCVTELDGQVENLHLDLCCLAGNQEDLSKDSLGPTKSSKIEGAGTSISEPPSPISPYASESCGTLPLPLRPCGEGSEMVGKENSSPENKNWLLAMAAKRKAENPSPRSPSSQTPNSRRQSGKKLPSPVTITPSSMRKACTAAHRKSQEDFCGPEHSTEL |  |  | not recruited to UV-irradiated sites | severely reduced | almost no signal was detected
